Here are results for seven molecules from US5876691A, “Antibody against carcionembryonic antigen (CEA)” (Cancer Research Campaign Technology Limited, priority 1993, dated 1999).

A value given as a limit tells only on which side of the number the result lay.

Data set [1] has as its target carcinoembryonic antigen (CEA) (human) (UniProt P06731). Kind of data set: IMAC purified MFE-23 His, 0.5 mg applied to the CEA affinity column after 6 months storage at 4 C.
Data set [2] has the same target. Kind of data set: CEA affinity column, after 6 months storage at 4 C, compared with MFE-23 His purified on the same column.
Data set [3] has the same target. Kind of data set: 125I-labelled scFv applied to a CEA coupled Sepharose 4B column, gamma counting.
Data set [4] shares this target. Kind of data set: IMAC purified MFE-23 His, 1 mg applied to the CEA affinity column after 6 months storage at 4 C.
The target is the same in data set [5]. As to the kind of experiment: CEA column, after radiolabelling with 125I.
Data set [6] has the same target. As to the kind of experiment: unbound fraction of 125I-MFE-23 His reapplied to the CEA column.
Data set [7] has the same target. As to the kind of experiment: 125I-labelled scFv applied to a CEA coupled Sepharose 4B column, gamma counting; total recovered 1710 cpm.
For data set [8] the target is unchanged. Kind of data set: IMAC purified MFE-23 His, 2 mg applied to the CEA affinity column after 6 months storage at 4 C.
Data set [9] has the same target. As to the kind of experiment: known amount of antibody applied to the CEA affinity column after 6 months storage at 4 C.
The target is the same in data set [10]. As to the kind of experiment: MFE-23 His purified by CEA antigen affinity chromatography, 1 mg applied to the CEA affinity column.
Data set [11] shares this target. As to the kind of experiment: radiolabelled control scFv applied to a CEA coupled Sepharose 4B column, gamma counting.
The target is the same in data set [12]. Kind of data set: 125I-labelled scFv applied to a 1 ml CEA/Sepharose column (1 mg CEA).
For data set [13] the target is unchanged. Kind of data set: radiolabelled scFv applied to a CEA coupled Sepharose 4B column, gamma counting.
The target is the same in data set [14]. As to the kind of experiment: summary of the affinity comparison with A5B7.
Data set [15] shares this target. Kind of data set: fluorescence quench, purified soluble scFv.
Data set [16] has the same target. Kind of data set: fluorescence quench.
For data set [17] the target is unchanged. As to the kind of experiment: 99mTc-labelled MFE-cys applied to a 1 ml CEA/Sepharose column (1 mg CEA), bound material eluted with 3M ammoniumthiocyanate.
For data set [18], the system named is human colorectal adenocarcinomas. Kind of data set: Immunohistochemistry with purified scFv on colorectal adenocarcinomas. To be noted: second antibody against myc tag, positive/tested tumours. The data set is classed as binding. The source says:
(§1) MFE-23 was subcloned for expression as a soluble scFv linked to a C-terminal myc tag to aid identification during protein purification. […] The specificity against a range of normal human tissues was examined and the only reactivity was weak and with normal large bowel--this is in contrast to many anti-CEA monoclonal antibodies which commonly show cross reaction with a variety of normal tissues^7.

A short description of data set [19]: Stability of radiolabelled product by gel filtration on S-100 / SDS PAGE. The data set is classed as physicochemical. To be noted: 125-I labelled, gel filtration on S-100.
Data set [20] concerns LS174T human colorectal carcinoma xenograft. As to the kind of experiment: Xenograft biodistribution study, Example 2. Format: in vivo, nude mice. The note with it: for percent injected activity per gram of tissue, tumour: 125-I labelled, i.v. tail vein. How it is done: Radiolabelled antibody was administered via the tail vein of nude mice bearing the LS174T human colorectal carcinoma xenograft^21. Each mouse received 4.3 μg/30.12 μCi of A5-SC or 4.3 μg/7.73 μCi of MFE-23. Mice were sacrificed at 24 h and 48 h, and tissues were removed and assessed for activity using a gamma counter. 4 mice were used for each time point.

The target in data set [21] is T1, CEA (Homo sapiens, UniProt P06731).
T1 sequence (P06731 35-702): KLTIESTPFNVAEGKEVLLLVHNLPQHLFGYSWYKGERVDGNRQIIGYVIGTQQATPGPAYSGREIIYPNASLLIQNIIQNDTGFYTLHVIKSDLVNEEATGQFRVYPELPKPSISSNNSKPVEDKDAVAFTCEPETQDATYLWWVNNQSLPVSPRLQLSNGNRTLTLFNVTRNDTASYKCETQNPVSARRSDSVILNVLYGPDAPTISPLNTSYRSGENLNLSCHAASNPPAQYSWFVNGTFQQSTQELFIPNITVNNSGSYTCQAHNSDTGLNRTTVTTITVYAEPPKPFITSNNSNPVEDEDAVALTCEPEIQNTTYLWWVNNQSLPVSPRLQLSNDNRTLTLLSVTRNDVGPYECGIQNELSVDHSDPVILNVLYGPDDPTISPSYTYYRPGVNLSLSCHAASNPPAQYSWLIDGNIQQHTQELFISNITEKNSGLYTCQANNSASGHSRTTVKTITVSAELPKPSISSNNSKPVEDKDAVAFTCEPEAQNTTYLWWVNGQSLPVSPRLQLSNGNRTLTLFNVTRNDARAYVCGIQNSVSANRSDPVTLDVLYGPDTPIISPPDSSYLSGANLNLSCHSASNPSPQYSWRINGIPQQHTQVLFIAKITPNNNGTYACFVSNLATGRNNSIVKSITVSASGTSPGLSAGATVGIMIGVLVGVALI
Kind of data set: CEA binding of radiolabelled product on CEA/Sepharose column. On the procedure: 75 μg of A5-SC and MFE-23 were iodinated with 0.5 mCi of 125-I using the Chloramine T/L-Tyrosine method^20. […] The stability of the radiolabelled products was tested by gel filtration on S-100.
MFE-cys was radiolabelled with ^99m Tc using a ^99m Tc-D-glucarate transfer method^22. 1 ml of ^99m Tc sodium pertechnetate (40.5 mCi) was added to 12.5 mg of monopotassium D-glucarate, 16.8 mg of sodium bicarbonate and 100 μg of stannous chloride (stannous chloride was made up directly before use at a concentration of 0.2 mg/ml). This solution was left for 1 min at room temperature. Then 0.5 ml was mixed with 200 μg MFE-cys in PBS/1 mM EDTA. The mixture was incubated at room temperature for 30 min and then applied to a PD 10 column (Pharmacia; primed with 3% human serum albumin in PBS) to separate the radiolabelled protein from the free pertechnetate. The efficiency of ^99m Tc uptake was tested by thin layer chromatography, using acetonitrile/water (30:20) as running solvent. An aliquot (100 μl) of diluted radiolabelled scFv (1:30 in PBS/Tween 20) was applied to a 1 ml CEA-sepharose column, containing 1 mg of CEA, to test CEA-binding. The column was washed with 8 volumes of PBS/0.05% Tween 20 and bound material was obtained by adding 3M ammoniumthiocyanate. Further, the stability of the labelled scFv was tested by applying the product (diluted 1:30) to Sephacryl S-100. To test the stability of the radiolabelled product in vivo serum taken from mice injected with the labelled scFv 24 h after administration was also applied to Sephacryl S-100. Stability of the ^99m Tc-labelled product was also tested by gel autoradiography as follows: radiolabelled MFE-cys was subjected to SDS-PAGE using a 15% non-reducing acrylamide gel. The protein was then Western blotted onto Immobilon P (Millipore), and visualised by autoradiography using Kodak X-Omatic cassette and Hyperfilm-MP film (Amersham).
Thin layer chromatography (TLC) was performed to measure % ^125 I incorporation. Antigen binding was also assessed by applying a dilution of the radiolabel to a CEA coupled Sepharose 4B (1 mg CEA; 1 ml column volume). The unbound fraction was washed through with 2 column volumes of PBS and the bound fraction with the same volume of 3M ammonium thiocyanate. A control scFv B1.8 which is not specific for CEA and MFE-23 containing a c-myc tag (MFE-23 myc) were tested as a comparison. The unbound and bound fractions were analysed for ^125 I activity using a gamma counter. Stability assessments were carried out by applying a sample of the radiolabel and unlabelled product to a 15% SDS PAGE minigel. The ^125 I-MFE-23 His was visualised by autoradiography and the unlabelled product by Coomassie blue staining. ^125 I-MFE-23 His was also applied to a 100 ml Sephacryl S-100 column (115×1 cm). 1.5 ml fractions were collected and counted for ^125 I activity.

Data set [22] is described as follows: Isoelectric focusing (pI of scFvs). The data set is classed as physicochemical. To be noted: Amphaline PAG plate pH 3.5-9.5. The text has this:
The isoelectric focusing points of the scFvs were obtained using an Amphaline PAG plate pH 3.5-9.5 (Pharmacia) in accordance with manufacturers instructions.

The target in data set [23] is T1, CEA. Kind of data set: Dissociation constant (Kd) by fluorescence quench. To be noted: binding to CEA.
From the text: as §1

The subject of another data set is normal human tissues. Kind of data set: Immunohistochemistry specificity against normal human tissues. Format: binding.
From the text: as §1

Data set [24] deals with LS174T human colorectal tumour xenografts. Kind of data set: Tumour localisation in vivo, Example 1. Also on record: species or system nude mice. The note with it: 125 Iodine labelled, FIG. 2, 29 and 35 hours after injection. The text has this: Tumour localisation in vivo was studied using LS174T human colorectal tumour xenografts in nude mice.

On to “MFE-23 His (MFE-23 scFv containing 6xHis at the C-terminus)”, for which the Bound stood at 0.4 mg in data set [1], 0.68 mg in data set [4], 0.76 mg in data set [8] and 0.83 mg in [10]. The Specific activity (%) in data set [1] was found to be 81%; in data set [4], 75%; in data set [8], 69%; in data set [10], 89%. Also, the antigen binding retained in data set [2] is 84%; in data set [5], > 75%. For the same molecule, the percent of recovered counts in the bound fraction in data set [3] was determined as 75%. This molecule also showed a percent of loaded counts in the bound fraction on reapplication in data set [6] of 58%. The molecule further had a counts in the bound fraction in data set [7] of 1280 cpm. In data set [9], the mean % bound specific activity amounted to 75%.
In data set [11], control scFv B1.8 gave a counts bound to the column of 1300 cpm and a percent of recovered counts bound to the column of 10%.
The molecule “A5-SC (scFv derived from monoclonal antibody A5B7)” gave a percent of counts recovered in data set [12] of 30.8%.
In turn, “MFE-23 soluble scFv linked to a C-terminal myc tag” yielded a percent of counts recovered in [12] of 38.7%. In [13], this molecule had a counts bound to the column of 23000 cpm and a percent of recovered counts bound to the column of 56%. In [14], this molecule came in with a fold affinity against A5B7 of 10 times. The Kd in [15] was 2.5 nM.
In data set [16], A5B7 monoclonal anti-CEA antibody returned a Kd of 25 nM.
In the case of MFE-cys (cysteine-tagged MFE-23 scFv), in data set [17], the percent of counts recovered in the bound fraction turned out to be 55%.

B1: MFE-23: anti-CEA single chain Fv selected from a bacteriophage library, sequence of FIG. 3 (SEQ ID No. 2) (protein)
scFv: ETVIMKYLLPTAAAGLLLLAAQPAMAQVKLQQSGAELVRSGTSVKLSCTASGFNIKDSYMHWLRQGPEQGLEWIGWIDPENGDTEYAPKFQGKATFTTDTSSNTAYLQLSSLTSEDTAVYYCNEGTPTGPYYFDYWGQGTTVTVSSGGGGSGGGGSGGGGSENVLTQSPAIMSASPGEKVTITCSASSSVSYMHWFQQKPGTSPKLWIYSTSNLASGVPARFSGSGSGTSYSLTISRMEAEDAATYYCQQRSSYPLTFGAGTKLELKRAA
On to B1, for which the “typical CEA-reactive pattern in human colorectal adenocarcinomas” value in data set [18] was 10/10. The “stability after iodination, S-100 elution profile” value in data set [19] is on record as “one peak”. For the same molecule, the “percent injected activity per gram of tissue, tumour” value in data set [20] (24 hours) stood at 3.2%. Besides, in data set [20] (48 hours), the “percent injected activity per gram of tissue, tumour” value came to 1.2%. Further, the “localisation in liver and spleen” value in [20] (in contrast with A5-SC) is “did not show localisation”. The “percent of counts recovered on binding to CEA/Sepharose” value in the data set with CEA [21] (125-I radiolabelled products, Example 2) was determined as 38.7%. In the data set with CEA [21] (125I radiolabelled, Example 5), the “counts in bound fraction of CEA column, % of total counts recovered” value stood at 56% and the “counts in unbound fraction of CEA column, % of total counts recovered” value stood at 43%. Besides, the pI in data set [22] is 4.5-5.5. Also, the Kd with CEA [23] was found to be 2.5 ± 1.3 nM. Also, the “binding to normal tissues” value in the data set with normal human tissues (liver, kidney, large intestine, tonsil, lung, brain, testis, ovary, cervix, breast, blood films, placenta, spleen, thyroid, oesophagus, stomach, pancreas, lymph node, skeletal muscle) is reported as “did not bind”. In addition, the “reactivity with normal large bowel” value in the data set on normal human tissues (only reactivity seen in range of normal human tissues) is on record as “weak”. In addition, the “tumour imaging (gamma camera)” value in [24] is “only tumours are visible”.
